Measurements: paper PMC9633819 (Nature Communications, 2022)
Where “and” joins values, the source holds several entries; their conditions need not be identical. Identical values can stand only once.

Tests used:
[1] = target: T1, contactin 1^fe HM (full ectodomain, residues 21–996), C-terminally biotinylated SPR ligand (mouse, UniProt P12960 21-996, biotin on the C-terminal biotin acceptor peptide; N-linked high mannose glycans); assay: SPR
T1 chain: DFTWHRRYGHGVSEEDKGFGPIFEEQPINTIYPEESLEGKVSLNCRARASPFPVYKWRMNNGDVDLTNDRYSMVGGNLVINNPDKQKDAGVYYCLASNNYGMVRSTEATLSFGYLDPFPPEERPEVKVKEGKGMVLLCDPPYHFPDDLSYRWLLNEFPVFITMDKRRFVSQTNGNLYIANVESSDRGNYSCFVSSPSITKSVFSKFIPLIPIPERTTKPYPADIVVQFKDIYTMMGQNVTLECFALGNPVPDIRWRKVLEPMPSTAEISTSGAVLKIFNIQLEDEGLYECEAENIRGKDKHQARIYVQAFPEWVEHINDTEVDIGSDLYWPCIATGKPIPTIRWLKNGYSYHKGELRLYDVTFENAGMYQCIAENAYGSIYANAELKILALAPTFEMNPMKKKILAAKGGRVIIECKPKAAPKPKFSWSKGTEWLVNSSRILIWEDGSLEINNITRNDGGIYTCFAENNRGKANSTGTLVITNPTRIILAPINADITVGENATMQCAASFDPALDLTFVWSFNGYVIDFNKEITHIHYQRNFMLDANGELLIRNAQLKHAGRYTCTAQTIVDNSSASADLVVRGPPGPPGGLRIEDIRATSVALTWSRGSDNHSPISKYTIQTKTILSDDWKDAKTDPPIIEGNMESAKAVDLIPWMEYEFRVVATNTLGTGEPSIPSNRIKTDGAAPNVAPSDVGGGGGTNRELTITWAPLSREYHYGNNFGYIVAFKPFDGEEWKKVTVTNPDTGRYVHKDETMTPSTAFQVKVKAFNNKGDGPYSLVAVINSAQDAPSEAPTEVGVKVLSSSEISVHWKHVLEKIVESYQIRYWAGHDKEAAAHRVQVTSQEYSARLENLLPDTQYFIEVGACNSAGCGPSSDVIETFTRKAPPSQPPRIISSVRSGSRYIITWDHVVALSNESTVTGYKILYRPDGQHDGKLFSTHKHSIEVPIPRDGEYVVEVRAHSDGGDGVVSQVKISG

[2] = target: neurofascin 155^Ig1–6 (residues 25–633), high mannose glycans (mouse); assay: SEC-MALS + other: SAXS; dimer to monomers; estimate from the concentration dependence of peak position, molecular weight and Rg; 25 mM HEPES pH 7.5, 150 mM NaCl
[3] = target: contactin 1^Ig1–6 HM, C-terminally biotinylated SPR ligand (mouse) (UniProt P12960); assay: SPR; SPR imaging (MX96 SPRi); C-terminally biotinylated contactin 1 ligands spotted on a P-STREP SensEye chip, neurofascin 155^Ig1–6 as analyte; 25 °C; 25 mM HEPES pH 7.5, 150 mM NaCl with 0.005% Tween-20; equilibrium response fitted with a 1:1 Langmuir model
SAXS Kratky plots = conditions: glycan changed form; control: contactin 1 with complex glycans
[4] = K562 cell clustering index; conditions: glycan changed form; control: untreated contactin 1 K562 cells

B1: neurofascin 155^Ig1–6 (residues 25–633), high mannose glycans (domain or fragment)
chain: IEIPMDLTQPPTITKQSVKDHIVDPRDNILIECEAKGNPAPSFHWTRNSRFFNIAKDPRVSMRRRSGTLVIDFRSGGRPEEYEGEYQCFARNKFGTALSNRIRLQVSKSPLWPKENLDPVVVQEGAPLTLQCNPPPGLPSPVIFWMSSSMEPITQDKRVSQGHNGDLYFSNVMLQDMQTDYSCNARFHFTHTIQQKNPFTLKVLTNNPYNDSSLRNHPDIYSARGVAERTPSFMYPQGTSSSQMVLRGMDLLLECIASGVPTPDIAWYKKGGDLPSNKAKFENFNKALRITNVSEEDSGEYFCLASNKMGSIRHTISVRVKAAPYWLDEPKNLILAPGEDGRLVCRANGNPKPTVQWMVNGEPLQSAPPNPNREVAGDTIIFRDTQISSRAVYQCNTSNEHGYLLANAFVSVLDVPPRMLSARNQLIRVILYNRTRLDCPFFGSPIPTLRWFKNGQGSNLDGGNYHVYENGSLEIKMIRKEDQGIYTCVATNILGKAENQVRLEVKDPTRIYRMPEDQVAKRGTTVQLECRVKHDPSLKLTVSWLKDDEPLYIGNRMKKEDDSLTIFGVAERDQGSYTCMASTELDQDLAKAYLTVLADQATPTNRLAA
modifications: N-linked high mannose glycans (glycans at Asn316, Asn420, Asn457 and Asn494 are named)
**Q.** For B1, which Kd [1] is on record?
**A.** The Kd was 270 nM and 310 nM.

**Q.** And the Kd [2]?
**A.** Its Kd is 5000 to 30000 nM.

**Q.** And the Kd [3]?
**A.** The Kd was 220 nM.

B2: contactin 1: high mannose glycans (GnTI- HEK293) (protein)
parent chain: MKMPLLVSHLLLISLTSCLGDFTWHRRYGHGVSEEDKGFGPIFEEQPINTIYPEESLEGKVSLNCRARASPFPVYKWRMNNGDVDLTNDRYSMVGGNLVINNPDKQKDAGVYYCLASNNYGMVRSTEATLSFGYLDPFPPEERPEVKVKEGKGMVLLCDPPYHFPDDLSYRWLLNEFPVFITMDKRRFVSQTNGNLYIANVESSDRGNYSCFVSSPSITKSVFSKFIPLIPIPERTTKPYPADIVVQFKDIYTMMGQNVTLECFALGNPVPDIRWRKVLEPMPSTAEISTSGAVLKIFNIQLEDEGLYECEAENIRGKDKHQARIYVQAFPEWVEHINDTEVDIGSDLYWPCIATGKPIPTIRWLKNGYSYHKGELRLYDVTFENAGMYQCIAENAYGSIYANAELKILALAPTFEMNPMKKKILAAKGGRVIIECKPKAAPKPKFSWSKGTEWLVNSSRILIWEDGSLEINNITRNDGGIYTCFAENNRGKANSTGTLVITNPTRIILAPINADITVGENATMQCAASFDPALDLTFVWSFNGYVIDFNKEITHIHYQRNFMLDANGELLIRNAQLKHAGRYTCTAQTIVDNSSASADLVVRGPPGPPGGLRIEDIRATSVALTWSRGSDNHSPISKYTIQTKTILSDDWKDAKTDPPIIEGNMESAKAVDLIPWMEYEFRVVATNTLGTGEPSIPSNRIKTDGAAPNVAPSDVGGGGGTNRELTITWAPLSREYHYGNNFGYIVAFKPFDGEEWKKVTVTNPDTGRYVHKDETMTPSTAFQVKVKAFNNKGDGPYSLVAVINSAQDAPSEAPTEVGVKVLSSSEISVHWKHVLEKIVESYQIRYWAGHDKEAAAHRVQVTSQEYSARLENLLPDTQYFIEVGACNSAGCGPSSDVIETFTRKAPPSQPPRIISSVRSGSRYIITWDHVVALSNESTVTGYKILYRPDGQHDGKLFSTHKHSIEVPIPRDGEYVVEVRAHSDGGDGVVSQVKISGVSTLSSSLLSLLLPSLGFLVYSEF
**Q.** Which structure_or_conformation (SAXS Kratky plots) does the source give for B2 here?
**A.** The structure_or_conformation was “no change”.

B3: contactin 1: kifunensine (protein)
parent chain: MKMPLLVSHLLLISLTSCLGDFTWHRRYGHGVSEEDKGFGPIFEEQPINTIYPEESLEGKVSLNCRARASPFPVYKWRMNNGDVDLTNDRYSMVGGNLVINNPDKQKDAGVYYCLASNNYGMVRSTEATLSFGYLDPFPPEERPEVKVKEGKGMVLLCDPPYHFPDDLSYRWLLNEFPVFITMDKRRFVSQTNGNLYIANVESSDRGNYSCFVSSPSITKSVFSKFIPLIPIPERTTKPYPADIVVQFKDIYTMMGQNVTLECFALGNPVPDIRWRKVLEPMPSTAEISTSGAVLKIFNIQLEDEGLYECEAENIRGKDKHQARIYVQAFPEWVEHINDTEVDIGSDLYWPCIATGKPIPTIRWLKNGYSYHKGELRLYDVTFENAGMYQCIAENAYGSIYANAELKILALAPTFEMNPMKKKILAAKGGRVIIECKPKAAPKPKFSWSKGTEWLVNSSRILIWEDGSLEINNITRNDGGIYTCFAENNRGKANSTGTLVITNPTRIILAPINADITVGENATMQCAASFDPALDLTFVWSFNGYVIDFNKEITHIHYQRNFMLDANGELLIRNAQLKHAGRYTCTAQTIVDNSSASADLVVRGPPGPPGGLRIEDIRATSVALTWSRGSDNHSPISKYTIQTKTILSDDWKDAKTDPPIIEGNMESAKAVDLIPWMEYEFRVVATNTLGTGEPSIPSNRIKTDGAAPNVAPSDVGGGGGTNRELTITWAPLSREYHYGNNFGYIVAFKPFDGEEWKKVTVTNPDTGRYVHKDETMTPSTAFQVKVKAFNNKGDGPYSLVAVINSAQDAPSEAPTEVGVKVLSSSEISVHWKHVLEKIVESYQIRYWAGHDKEAAAHRVQVTSQEYSARLENLLPDTQYFIEVGACNSAGCGPSSDVIETFTRKAPPSQPPRIISSVRSGSRYIITWDHVVALSNESTVTGYKILYRPDGQHDGKLFSTHKHSIEVPIPRDGEYVVEVRAHSDGGDGVVSQVKISGVSTLSSSLLSLLLPSLGFLVYSEF
**Q.** With B3 as the binder, how does the “other: homophilic cell clustering” value [4] read?
**A.** Its value is “no change”.
